Laboratory results from article PMC11162770, “The mutation R107Q alters mtSSB ssDNA compaction ability and binding dynamics” (Nucleic Acids Research, 2024).
Positions count from the first letter of the chain named. In names and notes the source's numbering stands.

How the values were obtained:
[1] = test system: mtSSB R107Q-Alexa555/647 (human); test: TIRF dissociation; conditions: unwrapping almost 3 times faster than WT, EMSA: 20 mM Tris-HCl pH 7.8, 10 mM MgCl2, 0.1 mg/ml BSA, 10 mM DTT, 10% glycerol, 2 mM ATP, room temperature, TIRF: ssDNA diluted in 20 mM TrisOAc pH 8, 20% …
[2] = target: T1, mtSSB WT-Alexa555/647 (human) (UniProt Q04837); test: TIRF dissociation; conditions: EMSA: 20 mM Tris-HCl pH 7.8, 10 mM MgCl2, 0.1 mg/ml BSA, 10 mM DTT, 10% glycerol, 2 mM ATP, room temperature, TIRF: ssDNA diluted in 20 mM TrisOAc pH 8, 20% …
T1 sequence: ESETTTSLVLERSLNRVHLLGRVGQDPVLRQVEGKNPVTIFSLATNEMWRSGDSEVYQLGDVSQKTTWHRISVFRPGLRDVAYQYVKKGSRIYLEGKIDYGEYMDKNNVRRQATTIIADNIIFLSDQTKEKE

[3] = test system: mtSSB R107Q-Alexa555/647 (human); test: competition; conditions: EMSA: 20 mM Tris-HCl pH 7.8, 10 mM MgCl2, 0.1 mg/ml BSA, 10 mM DTT, 10% glycerol, 2 mM ATP
[4] = target: T1, mtSSB WT-Alexa555/647 (human); test: competition; conditions: WT-Alexa647 vs R107Q-Alexa555 150 nM each (1:1); 24% of ssDNA WT only, 76% both; EMSA: 20 mM Tris-HCl pH 7.8, 10 mM MgCl2, 0.1 mg/ml BSA, 10 mM DTT, 10% glycerol, 2 mM ATP, room temperature; TIRF: ssDNA diluted in 20 mM TrisOAc pH 8, 20% …
[5] = target: T2, mtSSB R107Q (His-tag, C-terminal Cys) (human, UniProt Q04837 17-148, R107Q); test: BLI; 1:1 fit; Discussion swaps the 30/60-nt labels; EMSA: 20 mM Tris-HCl pH 7.8, 10 mM MgCl2, 0.1 mg/ml BSA, 10 mM DTT, 10% glycerol, 2 mM ATP, room temperature; TIRF: ssDNA diluted in 20 mM TrisOAc pH 8, 20% sucrose, 20 mM DTT, NaOAc 0-400 mM added; BLI and AFS buffers not in material; conditions: protein: recombinant; tags: N-terminal His; extra C-terminal Cys; chain copies: 4; single strand
T2 sequence: T1 sequence with R91Q

[6] = target: T3, mtSSB WT (His-tag, C-terminal Cys) (human, UniProt Q04837 17-148); test: as above; conditions: protein: recombinant; tags: N-terminal His; extra C-terminal Cys; chain copies: 4; single strand
T3 sequence: T1 sequence

[7] = target: the molecule itself; test: mass photometry; Refeyn TwoMP; proteins prepared at 1 uM and diluted to 100 nM before measurement; data collected for one minute; oligomeric state in solution (tetramer)

Molecule: lambda ssDNA
- binding signal (% lost after salt) ([1]; 100 mM NaOAc): 40
- binding signal (% lost after salt) ([1]; 400 mM NaOAc): 77
- binding signal (% lost after salt) ([2]; 100 mM NaOAc): 20
- binding signal (% lost after salt) ([2]; 400 mM NaOAc): 20
- binding signal (% of mtSSB on co-coated ssDNA) ([3]; R107Q-Alexa555 150 nM vs WT-Alexa647 15 nM (1:0.1), room …, TIRF: ssDNA diluted in 20 mM TrisOAc pH 8, 20% suc): 94
- binding signal (% of ssDNA coated by R107Q only) ([3]; R107Q-Alexa555 vs WT-Alexa647 150 nM each (1:1), bound only together with WT, room temperature, TIRF: ssDNA diluted in 20 mM TrisOAc pH 8, 20% …): 0
- binding signal (% of mtSSB on co-coated ssDNA) [4]: 73

Molecule: TTTTTTTTTTTTTTTTTTTTTTTTTTTTTT (ssDNA) [poly-dT30]
- Kd [5]: 1.35 ± 0.04 nM
- Kd [6]: 2.18 ± 0.1 nM

B1: poly-dT60 (ssDNA)
DNA: TTTTTTTTTTTTTTTTTTTTTTTTTTTTTTTTTTTTTTTTTTTTTTTTTTTTTTTTTTTT
- Kd [5]: 1.18 ± 0.02 nM
- Kd [6]: 1.17 ± 0.02 nM

B2: Mitochondrial single-stranded DNA-binding protein, wild type (mtSSB^WT), lacking the mitochondrial targeting sequence, with N-terminal His-tag and C-terminal … (natural protein, human)
chain: ESETTTSLVLERSLNRVHLLGRVGQDPVLRQVEGKNPVTIFSLATNEMWRSGDSEVYQLGDVSQKTTWHRISVFRPGLRDVAYQYVKKGSRIYLEGKIDYGEYMDKNNVRRQATTIIADNIIFLSDQTKEKEC
notes: one cysteine residue added at the C-terminus for maleimide labelling; not shown: His-tag, N-terminal, kept
- stoichiometry N [7]: 4

B3: Mitochondrial single-stranded DNA-binding protein variant R107Q (mtSSB^R107Q), lacking the mitochondrial targeting sequence, with N-terminal His-tag and … (natural protein, human)
chain: B2 chain with R91Q
notes: one cysteine residue added at the C-terminus for maleimide labelling; R107Q is a variant found in patients; PDB 6RUP is the wild-type parent's structure; not shown: His-tag, N-terminal, kept
- stoichiometry N [7]: 4
